Results on one protein are retold here after publication doi:10.1101/2024.06.05.597502v1.

Substrate in this series: O=[N+]([O-])c1ccc(O[C@@H]2O[C@H](CO)[C@@H](O)[C@H](O)[C@H]2O)cc1
As to the kind of experiment: purified protein. To be noted: 50 mM sodium acetate pH 5.5, 55 °C.

B1: AoBgl (Aspergillus oryzae exo-β-(1,3) glucanase) (Aspergillus oryzae RIB40) (protein)
chain: SRLDPRASSFDYNGEKVRGVNLGGWLVLEPWITPSIFDAAGAEAVDEWSLTKILGKEEAEARLSAHWKSFVSAGDFQRMADAGLNHVRIPIGYWALGPLEGDPYVDGQLEYLDKAVEWAGAAGLKVLIDLHGAPGSQNGFDNSGRRGAIQWQQGDTVEQTLDAFDLLAERYLGSDTVAAIEAINEPNIPGGVDQGKLQEYYGSVYGIVNKYNAGTSVVYGDGFLPVESWNGFKTEGSKVVMDTHHYHMFDNGLIAMDIDSHIDAVCQFAHQHLEASDKPVIVGEWTGAVTDCAKYLNGKGNGARYDGSYAADKAIGDCSSLATGFVSKLSDEERSDMRRFIEAQLDAFELKSGWVFWTWKTEGAPGWDMSDLLEAGVFPTSPDDREFPKQC
B1: the Michaelis constant (Km) (usually the concentration of substrate that gives half-maximal velocity) is reported as 5.78 mM.
